Test results: patent US20100331262A1 (KAGOSHIMA UNIVERSITY, published 2010)

B1: pepB7-C15 (peptide)
peptide: CYGTKPWMC
notes: also called pepB6-C2, C5, C6, C7, C8, C9, C10, and C15; pepD1-C5, C7, and C20

These binders were tested against T1, B6 scFv (assay: phage panning and phage ELISA on coated scFv).
T1 construct: also called clone B6 of WO 2005/105998
T1 sequence (VH, as listed by the source, chain 1 of 2): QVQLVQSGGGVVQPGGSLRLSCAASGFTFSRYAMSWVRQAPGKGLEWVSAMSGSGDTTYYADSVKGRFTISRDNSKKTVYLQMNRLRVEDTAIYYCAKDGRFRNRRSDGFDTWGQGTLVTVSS
T1 sequence (VL, as listed by the source, chain 2 of 2): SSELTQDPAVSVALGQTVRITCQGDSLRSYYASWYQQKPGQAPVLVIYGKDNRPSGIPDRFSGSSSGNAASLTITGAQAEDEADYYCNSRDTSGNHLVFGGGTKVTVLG

Row | Binder | binding result
1 | TSPILDVLTPPR [pepB6-L10] | binds
2 | GMLDIFAPIRHV [pepB6-L1] | binds

The binders below were run against T1, B6 scFv (assay: phage panning on coated scFv, clones confirmed by phage ELISA).

Row | Binder | binding result
3 | B1 | binds

What follows are binders tested against T2, B7 scFv in the same assay as above.
T2 construct: also called clone B7 of WO 2005/105998
T2 sequence (VH, as listed by the source, chain 1 of 2): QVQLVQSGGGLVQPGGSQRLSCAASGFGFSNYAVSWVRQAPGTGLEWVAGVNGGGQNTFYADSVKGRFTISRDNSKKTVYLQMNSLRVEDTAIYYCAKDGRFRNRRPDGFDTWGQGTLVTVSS
T2 sequence (VL, as listed by the source, chain 2 of 2): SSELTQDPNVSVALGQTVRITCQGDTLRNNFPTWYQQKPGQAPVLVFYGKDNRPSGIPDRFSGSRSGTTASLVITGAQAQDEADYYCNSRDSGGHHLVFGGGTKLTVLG

Row | Binder | binding result
4 | B1 | binds

These binders were tested against T3, D1 scFv in the same assay as above.
T3 construct: also called clone D1 of WO 2005/105998
T3 sequence (VH, as listed by the source, chain 1 of 2): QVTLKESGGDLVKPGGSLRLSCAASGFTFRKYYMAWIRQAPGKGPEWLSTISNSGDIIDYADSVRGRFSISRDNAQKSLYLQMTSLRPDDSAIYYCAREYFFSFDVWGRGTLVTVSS
T3 sequence (VL, as listed by the source, chain 2 of 2): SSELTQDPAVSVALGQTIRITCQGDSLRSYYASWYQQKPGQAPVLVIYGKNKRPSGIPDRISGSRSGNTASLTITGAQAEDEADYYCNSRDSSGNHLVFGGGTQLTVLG

Row | Binder | binding result
5 | SSIIDILLPPIY [pepD1-L6] | binds
6 | SILDILSPRLAE [pepD1-L7] | binds
7 | CQGHLPWMC [pepD1-C3] | binds
8 | B1 | binds
9 | CYGTEPWMC (also called pepD1-C13; pepD1-C2, C13) [pepD1-C2] | binds
10 | CFGHEPWMC [pepD1-C18] | binds
11 | CFGHKPWMC [pepD1-C11] | binds
12 | CFGRLPWMC [pepD1-C8] | binds
13 | CFGSLPWMC [pepD1-C10] | binds
14 | GSPFLDLLAPAA (also called pepD1-L9; pepD1-L5, L9) [pepD1-L5] | binds
15 | NPLDFYAPSILP [pepD1-L20] | binds
16 | GNTLLDTLVPLI [pepD1-L13] | binds

Each binder was assayed against T4, Aβ oligomers or Aβ fibers formed 1.5 hours after the dissolution of Aβ1-42 (UniProt P05067 672-713) (assay: precipitation with streptavidin-magnet beads, Western blot with anti-Aβ antibodies).
T4 construct: domain: Aβ1-42; Aggregated conformers of Aβ1-42 after 1.5 h at 40 µM in 20 mM phosphate buffer pH 7.0; The number of copies is not defined; also called Aβ conformers (Aβ oligomers and Aβ fibers)
T4 sequence (P05067 672-713 limits assumed): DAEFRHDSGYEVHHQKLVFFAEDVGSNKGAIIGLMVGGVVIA

Row | Binder | binding result
17 | GSGGGSCGYWRSEWGLCG (also called unrelated peptide) [unrelated control peptide (GSGGGSCGYWRSEWGLCG)] | no binding
